Measured values: the supplement of paper PMC10065799, “High-throughput profiling of sequence recognition by tyrosine kinases and SH2 domains using bacterial peptide display” (eLife, 2023)

test system: c-Src; assay: phosphorylation enrichment, bacterial display (enrichment ratio); higher = better substrate or ligand; peptides without Tyr show the background
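Throughout, for SH2 binding enrichment of the phosphorylated peptide, bacterial display: peptide library displayed on the E. coli surface as eCPX fusions, selected cells deep-sequenced, score is each peptide's frequency after selection divided by its frequency in the input.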
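Throughout, for phosphorylation enrichment, bacterial display: 11-residue human phosphosite peptides and single-mutation variants displayed on the E. coli surface, counted by deep sequencing, each peptide's frequency after selection divided by its frequency in the unselected input library; frequency after pTyr selection over input frequency; kinase dosed for 20-30% of maximal phosphorylation in three min.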

In order of rising phosphorylation enrichment:
1. ISISPYPAILH [IFT80_Y588_T586S]  0.358
2. PFIDSYEKDVA [PGM1_Y521_L516P_YF]  0.375
3. GGSTFYIDTNA [ACTL6A_Y69_P66S_YF]  0.39
4. KASIMYPSNNC [CXCL11_Y52]  0.394
5. GIVEDYRPPVF [ACVRL1_Y421_F425V_YF]  0.414
6. TNYSLYLRSLE [MTM1_Y71_R69S]  0.42
7. SFLFRYADDSF [RAB3C_Y50]  0.434
8. KKMKRYHVGKV [HARS2_Y151]  0.45
9. ATHSGYRLNDY [CLDN14_Y233]  0.493
10. ALTDNYMFVVI [HAGH_Y61_L64V_YF]  0.516
11. STEAIYRRYSK [SH3PXD2B_Y42]  0.52
12. QDIMAYRGREV [BCL6_Y157]  0.531
13. CNSFQYGGGGG [NPPA_Y151_R150Q]  0.532
14. ELPEKYSQNIF [PKP2_Y626_YF]  0.539
15. ECKLLYSQKEG [PTPN11_Y263_R265Q]  0.541
16. VSTAVYKRFAS [BEST1_Y148_P152A]  0.555
17. QFLMKYVWSAS [ABCD1_Y337]  0.559
18. SVTCTYSPDLN [TP53_Y126_A129D]  0.563
19. RRIHSYRGHLC [VHL_Y112_W117C]  0.566
20. VFFGSYSRPFG [NKAP_Y104_YF]  0.584
21. LSSISYVGCSL [ADGRD1_Y571]  0.605
22. ALECLYRREKR [TEKT5_Y195_H196R]  0.66
23. EVEPRYVVLFD [ERCC4_Y577_YF]  0.667
24. PEFVVYKPQME [CCRL2_Y170]  0.783
25. WSFNLYDINKD [KCNIP3_Y174_A170S]  0.88
26. LQEKSYIKGTS [LCTL_Y331]  0.9
27. STEAIYWRFSK [SH3PXD2B_Y42_R43W_YF]  2.98
28. NTFENYWPFFQ [GATM_Y103_K102N_YF]  4.41
29. ADAGMYGVLPW [PLP1_Y207_R205G]  6.61

target: Grb2 SH2 (UniProt P62993); assay: SH2 binding enrichment of the phosphorylated peptide, bacterial display (enrichment ratio); higher = better substrate or ligand; peptides without Tyr show the background
Sequence (P62993 whole entry, looked up): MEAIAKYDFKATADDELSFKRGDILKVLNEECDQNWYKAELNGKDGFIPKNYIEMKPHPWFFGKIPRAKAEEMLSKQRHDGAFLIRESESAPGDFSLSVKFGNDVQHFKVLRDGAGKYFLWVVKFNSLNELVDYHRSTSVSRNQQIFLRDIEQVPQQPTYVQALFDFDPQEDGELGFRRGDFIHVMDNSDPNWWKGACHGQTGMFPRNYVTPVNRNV

In order of falling SH2 binding enrichment:
1. LQEKSYIKGTS [LCTL_Y331]  1.41
2. VFFGSYSRPFG [NKAP_Y104_YF]  1.24
3. KKMKRYHVGKV [HARS2_Y151]  1.14
4. LSSISYVGCSL [ADGRD1_Y571]  1.13
5. NTFENYWPFFQ [GATM_Y103_K102N_YF]  1.06
6. PEFVVYKPQME [CCRL2_Y170]  1.02
7. TNYSLYLRSLE [MTM1_Y71_R69S]  1.01
8. SFLFRYADDSF [RAB3C_Y50]  0.988
9. KASIMYPSNNC [CXCL11_Y52]  0.952
10. RRIHSYRGHLC [VHL_Y112_W117C]  0.95
11. SVTCTYSPDLN [TP53_Y126_A129D]  0.89
12. ELPEKYSQNIF [PKP2_Y626_YF]  0.864
13. CNSFQYGGGGG [NPPA_Y151_R150Q]  0.845
14. STEAIYRRYSK [SH3PXD2B_Y42]  0.836
15. EVEPRYVVLFD [ERCC4_Y577_YF]  0.802
16. ECKLLYSQKEG [PTPN11_Y263_R265Q]  0.786
17. QDIMAYRGREV [BCL6_Y157]  0.769
18. ALECLYRREKR [TEKT5_Y195_H196R]  0.769
19. GGSTFYIDTNA [ACTL6A_Y69_P66S_YF]  0.735
20. ADAGMYGVLPW [PLP1_Y207_R205G]  0.726
21. GIVEDYRPPVF [ACVRL1_Y421_F425V_YF]  0.726
22. ISISPYPAILH [IFT80_Y588_T586S]  0.724
23. ATHSGYRLNDY [CLDN14_Y233]  0.709
24. PFIDSYEKDVA [PGM1_Y521_L516P_YF]  0.682
25. ALTDNYMFVVI [HAGH_Y61_L64V_YF]  0.679
26. QFLMKYVWSAS [ABCD1_Y337]  0.677
27. WSFNLYDINKD [KCNIP3_Y174_A170S]  0.676
28. VSTAVYKRFAS [BEST1_Y148_P152A]  0.644
29. STEAIYWRFSK [SH3PXD2B_Y42_R43W_YF]  0.606

target: SHP2-C SH2; assay: as above

In order of rising SH2 binding enrichment:
1. ISISPYPAILH [IFT80_Y588_T586S]  0.45
2. RRIHSYRGHLC [VHL_Y112_W117C]  0.478
3. STEAIYWRFSK [SH3PXD2B_Y42_R43W_YF]  0.495
4. KASIMYPSNNC [CXCL11_Y52]  0.504
5. ALECLYRREKR [TEKT5_Y195_H196R]  0.551
6. ALTDNYMFVVI [HAGH_Y61_L64V_YF]  0.568
7. PFIDSYEKDVA [PGM1_Y521_L516P_YF]  0.612
8. ATHSGYRLNDY [CLDN14_Y233]  0.623
9. STEAIYRRYSK [SH3PXD2B_Y42]  0.664
10. ECKLLYSQKEG [PTPN11_Y263_R265Q]  0.667
11. QFLMKYVWSAS [ABCD1_Y337]  0.668
12. WSFNLYDINKD [KCNIP3_Y174_A170S]  0.676
13. VSTAVYKRFAS [BEST1_Y148_P152A]  0.681
14. PEFVVYKPQME [CCRL2_Y170]  0.686
15. ELPEKYSQNIF [PKP2_Y626_YF]  0.711
16. QDIMAYRGREV [BCL6_Y157]  0.729
17. GIVEDYRPPVF [ACVRL1_Y421_F425V_YF]  0.738
18. ADAGMYGVLPW [PLP1_Y207_R205G]  0.74
19. CNSFQYGGGGG [NPPA_Y151_R150Q]  0.806
20. SVTCTYSPDLN [TP53_Y126_A129D]  0.856
21. NTFENYWPFFQ [GATM_Y103_K102N_YF]  0.949
22. GGSTFYIDTNA [ACTL6A_Y69_P66S_YF]  0.952
23. LSSISYVGCSL [ADGRD1_Y571]  1.1
24. LQEKSYIKGTS [LCTL_Y331]  1.1
25. VFFGSYSRPFG [NKAP_Y104_YF]  1.2
26. SFLFRYADDSF [RAB3C_Y50]  1.21
27. EVEPRYVVLFD [ERCC4_Y577_YF]  1.33
28. KKMKRYHVGKV [HARS2_Y151]  1.36
29. TNYSLYLRSLE [MTM1_Y71_R69S]  12.1

target: c-Src SH2; assay: as above

In order of falling SH2 binding enrichment:
1. EVEPRYVVLFD [ERCC4_Y577_YF]  3.48
2. VFFGSYSRPFG [NKAP_Y104_YF]  1.76
3. KKMKRYHVGKV [HARS2_Y151]  1.12
4. TNYSLYLRSLE [MTM1_Y71_R69S]  0.669
5. NTFENYWPFFQ [GATM_Y103_K102N_YF]  0.651
6. PEFVVYKPQME [CCRL2_Y170]  0.635
7. ELPEKYSQNIF [PKP2_Y626_YF]  0.614
8. PFIDSYEKDVA [PGM1_Y521_L516P_YF]  0.595
9. SFLFRYADDSF [RAB3C_Y50]  0.589
10. KASIMYPSNNC [CXCL11_Y52]  0.589
11. LSSISYVGCSL [ADGRD1_Y571]  0.567
12. GGSTFYIDTNA [ACTL6A_Y69_P66S_YF]  0.562
13. STEAIYRRYSK [SH3PXD2B_Y42]  0.557
14. ECKLLYSQKEG [PTPN11_Y263_R265Q]  0.554
15. LQEKSYIKGTS [LCTL_Y331]  0.546
16. RRIHSYRGHLC [VHL_Y112_W117C]  0.534
17. CNSFQYGGGGG [NPPA_Y151_R150Q]  0.531
18. QFLMKYVWSAS [ABCD1_Y337]  0.499
19. ATHSGYRLNDY [CLDN14_Y233]  0.49
20. VSTAVYKRFAS [BEST1_Y148_P152A]  0.49
21. SVTCTYSPDLN [TP53_Y126_A129D]  0.471
22. WSFNLYDINKD [KCNIP3_Y174_A170S]  0.469
23. QDIMAYRGREV [BCL6_Y157]  0.447
24. ADAGMYGVLPW [PLP1_Y207_R205G]  0.435
25. STEAIYWRFSK [SH3PXD2B_Y42_R43W_YF]  0.434
26. ISISPYPAILH [IFT80_Y588_T586S]  0.408
27. ALTDNYMFVVI [HAGH_Y61_L64V_YF]  0.388
28. GIVEDYRPPVF [ACVRL1_Y421_F425V_YF]  0.353
29. ALECLYRREKR [TEKT5_Y195_H196R]  0.268
